Experimental findings from the supplement of paper PMC5998384 are described below.

Data set [1] concerns HeLa Kyoto. As to the kind of experiment: melting temperature (median over replicates), in situ; higher = more thermally stable.
Data set [2] has as its system HeLa Kyoto. As to the kind of experiment: solubility change mitosis vs G1/S (difference of NP-40 vs SDS log2 ratios) (log2 ratio difference); higher = more soluble in mitosis.
The subject of data set [3] is HeLa Kyoto. Description: thermal stability score vs G1/S (z-score of summed log2 fold changes over temperatures); higher = more thermally stable than in G1/S.
In data set [4] the test system is HeLa Kyoto. Description: solubility in G1/S (NP-40 vs SDS abundance) (log2 ratio); higher = more soluble. The following applies: cell cycle stage: G1/S.
[5] abbreviates: cell cycle stage: early G1 (4.5 h after nocodazole release).
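For melting temperature (median over replicates), in situ in this document: HeLa Kyoto cells synchronized by double thymidine or nocodazole block, proteins quantified by TMT10plex mass spectrometry, three independent biological replicates.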
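For solubility change mitosis vs G1/S (difference of NP-40 vs SDS log2 ratios) in this document: synchronized HeLa Kyoto cells (double thymidine block for G1/S, nocodazole release for mitosis), protein amounts in NP-40 versus SDS lysates quantified by mass spectrometry, three biological replicates.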
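For solubility in G1/S (NP-40 vs SDS abundance) in this document: HeLa Kyoto cells arrested at G1/S by double thymidine block, proteins quantified by TMT10plex mass spectrometry in mild NP-40 versus SDS extracts, three biological replicates.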
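For thermal stability score vs G1/S (z-score of summed log2 fold changes over temperatures) in this document: synchronized HeLa Kyoto cells, proteins quantified by TMT10plex mass spectrometry, three biological replicates, mitosis taken 0.5 h after nocodazole release, G1/S directly after double thymidine block.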

Turning to “MSPWSWFLLQTLCLLPTGAASRRGAPGTANCELKPQQSELNSFLWTIKRDPPSYFFGTIHVPYTRVWDFIPDNSKEAFLQSSIVYFELDLTDPYTISALTSCQMLPQGENLQDVLPRDIYCRLKRHLEYVKLMMPLWMTPDQRGKGLYADYLFNAIAGNWERKRPVWVMLMVNSLTEVDIKSRGVPVLDLFLAQEAERLRKQTGAVEKVEEQCHPLNGLNFSQVIFALNQTLLQQESLRAGSLQIPYTTEDLIKHYNCGDLSSVILSHDSSQVPNFINATLPPQERITAQEIDSYLRRELIYKRNERIGKRVKALLEEFPDKGFFFAFGAGHFMGNNTVLDVLRREGYEVEHAPAGRPIHKGKSKKTSTRPTLSTIFAPKVPTLEVPAPEAVSSGHSTLPPLVSRPGSADTPSEAEQRFRKKRRRSQRRPRLRQFSDLWVRLEESDIVPQLQVPVLDRHISTELRLPRRGHSHHSQMVASSACLSLWTPVFWVLVLAFQTETPLL [TRABD2A]”, the melting temperature in data set [1] (cell cycle stage: G1/S) turned out to be 53.9 °C; in data set [1] (cell cycle stage: mitosis) it was 53.4 °C. In data set [2], the “solubility change mitosis (log2)” value was -0.031. For the same sequence, the thermal stability score was found to be 1.43 in data set [3] (setting [5]) and 0.133 in data set [3] (cell cycle stage: mitosis). Moreover, the “solubility in G1/S (log2)” value in data set [4] amounted to 0.299.

Consider “MSQWYELQQLDSKFLEQVHQLYDDSFPMEIRQYLAQWLEKQDWEHAANDVSFATIRFHDLLSQLDDQYSRFSLENNFLLQHNIRKSKRNLQDNFQEDPIQMSMIIYSCLKEERKILENAQRFNQAQSGNIQSTVMLDKQKELDSKVRNVKDKVMCIEHEIKSLEDLQDEYDFKCKTLQNREHETNGVAKSDQKQEQLLLKKMYLMLDNKRKEVVHKIIELLNVTELTQNALINDELVEWKRRQQSACIGGPPNACLDQLQNWFTIVAESLQQVRQQLKKLEELEQKYTYEHDPITKNKQVLWDRTFSLFQQLIQSSFVVERQPCMPTHPQRPLVLKTGVQFTVKLRLLVKLQELNYNLKVKVLFDKDVNERNTVKGFRKFNILGTHTKVMNMEESTNGSLAAEFRHLQLKEQKNAGTRTNEGPLIVTEELHSLSFETQLCQPGLVIDLETTSLPVVVISNVSQLPSGWASILWYNMLVAEPRNLSFFLTPPCARWAQLSEVLSWQFSSVTKRGLNVDQLNMLGEKLLGPNASPDGLIPWTRFCKENINDKNFPFWLWIESILELIKKHLLPLWNDGCIMGFISKERERALLKDQQPGTFLLRFSESSREGAITFTWVERSQNGGEPDFHAVEPYTKKELSAVTFPDIIRNYKVMAAENIPENPLKYLYPNIDKDHAFGKYYSRPKEAPEPMELDGPKGTGYIKTELISVSEVHPSRLQTTDNLLPMSPEEFDEVSRIVGSVEFDSMMNTV [STAT1]”, for which the figures for the melting temperature in data set [1] (cell cycle stage: G1/S) and in data set [1] (cell cycle stage: mitosis) were 47.7 °C and 48.5 °C, respectively. Besides, the “solubility change mitosis (log2)” value in data set [2] was -0.17. The thermal stability score worked out at 1.15 in data set [3] (setting [5]) and 3.11 in data set [3] (cell cycle stage: mitosis). Moreover, the “solubility in G1/S (log2)” value in data set [4] came to 0.104.

Turning to “MSRARSHLRAALFLAAASARGITTQVAARRGLSAWPVPQEPSMEYQDAVRMLNTLQTNAGYLEQVKRQRGDPQTQLEAMELYLARSGLQVEDLDRLNIIHVTGTKGKGSTCAFTECILRSYGLKTGFFSSPHLVQVRERIRINGQPISPELFTKYFWRLYHRLEETKDGSCVSMPPYFRFLTLMAFHVFLQEKVDLAVVEVGIGGAYDCTNIIRKPVVCGVSSLGIDHTSLLGDTVEKIAWQKGGIFKQGVPAFTVLQPEGPLAVLRDRAQQISCPLYLCPMLEALEEGGPPLTLGLEGEHQRSNAALALQLAHCWLQRQDRHGAGEPKASRPGLLWQLPLAPVFQPTSHMRLGLRNTEWPGRTQVLRRGPLTWYLDGAHTASSAQACVRWFRQALQGRERPSGGPEVRVLLFNATGDRDPAALLKLLQPCQFDYAVFCPNLTEVSSTGNADQQNFTVTLDQVLLRCLEHQQHWNHLDEEQASPDLWSAPSPEPGGSASLLLAPHPPHTCSASSLVFSCISHALQWISQGRDPIFQPPSPPKGLLTHPVAHSGASILREAAAIHVLVTGSLHLVGGVLKLLEPALSQ [FPGS]”, the melting temperature is 49.7 °C in data set [1] (cell cycle stage: G1/S) and 48.1 °C in data set [1] (cell cycle stage: mitosis). Besides, in data set [2], the “solubility change mitosis (log2)” value was -0.165. Also, the thermal stability score in data set [3] (setting [5]) turned out to be 0.537; in data set [3] (cell cycle stage: mitosis) it was 1.93. The “solubility in G1/S (log2)” value in data set [4] was 0.114.

As to “MSRGPEEVNRLTESTYRNVMEQFNPGLRNLINLGKNYEKAVNAMILAGKAYYDGVAKIGEIATGSPVSTELGHVLIEISSTHKKLNESLDENFKKFHKEIIHELEKKIELDVKYMNATLKRYQTEHKNKLESLEKSQAELKKIRRKSQGSRNALKYEHKEIEYVETVTSRQSEIQKFIADGCKEALLEEKRRFCFLVDKHCGFANHIHYYHLQSAELLNSKLPRWQETCVDAIKVPEKIMNMIEEIKTPASTPVSGTPQASPMIERSNVVRKDYDTLSKCSPKMPPAPSGRAYTSPLIDMFNNPATAAPNSQRVNNSTGTSEDPSLQRSVSVATGLNMMKKQKVKTIFPHTAGSNKTLLSFAQGDVITLLIPEEKDGWLYGEHDVSKARGWFPSSYTKLLEENETEAVTVPTPSPTPVRSISTVNLSENSSVVIPPPDYLECLSMGAAADRRADSARTTSTFKAPASKPETAAPNDANGTAKPPFLSGENPFATVKLRPTVTNDRSAPIIR [BAIAP2L1]”, the figures for the melting temperature in data set [1] (cell cycle stage: G1/S) and in data set [1] (cell cycle stage: mitosis) were 52.7 °C and 54.1 °C, respectively. Besides, the “solubility change mitosis (log2)” value in data set [2] was -0.0797. Also, the thermal stability score turned out to be 1.74 in data set [3] (setting [5]) and 1.36 in data set [3] (cell cycle stage: mitosis). Moreover, in data set [4], the “solubility in G1/S (log2)” value is 0.326.
